Results from article doi:10.1101/2021.10.17.464694 (bioRxiv, 2021).

Target: K63-linked diubiquitin (UniProt P0CG48 1-76; P0CG48 1-76, K48R | K63R | D77 extension)
Experiment: ITC

- stoichiometry N: 1 ASCC2 per K63Ub2
B1: full-length ASCC2 (natural protein)
chain: MPALPLDQLQITHKDPKTGKLRTSPALHPEQKADRYFVLYKPPPKDNIPALVEEYLERATFVANDLDWLLALPHDKFWCQVIFDETLQKCLDSYLRYVPRKFDEGVASAPEVVDMQKRLHRSVFLTFLRMSTHKESKDHFISPSAFGEILYNNFLFDIPKILDLCVLFGKGNSPLLQKMIGNIFTQQPSYYSDLDETLPTILQVFSNILQHCGLQGDGANTTPQKLEERGRLTPSDMPLLELKDIVLYLCDTCTTLWAFLDIFPLACQTFQKHDFCYRLASFYEAAIPEMESAIKKRRLEDSKLLGDLWQRLSHSRKKLMEIFHIILNQICLLPILESSCDNIQGFIEEFLQIFSSLLQEKRFLRDYDALFPVAEDISLLQQASSVLDETRTAYILQAVESAWEGVDRRKATDAKDPSVIEEPNGEPNGVTVTAEAVSQASSHPENSEEEECMGAAAAVGPAMCGVELDSLISQVKDLLPDLGEGFILACLEYYHYDPEQVINNILEERLAPTLSQLDRNLDREMKPDPTPLLTSRHNVFQNDEFDVFSRDSVDLSRVHKGKSTRKEENTRSLLNDKRAVAAQRQRYEQYSVVVEEVPLQPGESLPYHSVYYEDEYDDTYDGNQVGANDADSDDELISRRPFTIPQVLRTKVPREGQEEDDDDEEDDADEEAPKPDHFVQDPAVLREKAEARRMAFLAKKGYRHDSSTAVAGSPRGHGQSRETTQERRKKEANKATRANHNRRTMADRKRSKGMIPS
